Test results taken from publication doi:10.1101/2021.12.11.472236 (bioRxiv, 2021).

B1: 10-40 (antibody, V domains shown)
VH: QLQLQESGPGLVKPSETLSLTCTVSGGSISSSNFYWGWIRQPPGKGLEWIASITYSGRTFYNPSLKSRVAISVDTSKNQFSLKLSSVTAADTAVYYCARTFPSYYDRSGYHYLNYGMDVWGQGTTVTVSS
VL: NFMLTQPHSMSESPGKTVTISCTRSSGSIASNYVQWYQQRPGSSPTTVIYEDNQRPSGVPDRFSGSIDSSSNSASLTISGLKTEDEADYYCQSYDSSSWVFGGGTKLTVL
B2: 10-40 Fab (Fab, V domains shown)
VH: B1 VH
VL: B1 VL
B3: 10-28 (antibody, V domains shown)
VH: QVQLVESGGGVVQPGRSLRLSCAASGFTFSSYDMHWVRQAPGKGLEWVAVISYDGSSKFYAESVKGRFTISRDNSKNTLYLQMNSLRAEETAVYYCVKDGEQLVPLFDYWGQGTLVTVSS
VL: not shown
B4: 10-28 Fab (Fab, V domains shown)
VH: B3 VH
VL: not shown

Key:
RBD of Rf1 = RBD of Rf1 (Bat SARS CoV Rf1/2004, UniProt Q0QDZ0); assay: ELISA
SARS-CoV-2 WA1 RBD = SARS-CoV-2 WA1 RBD (SARS-CoV-2, UniProt P0DTC2); assay: crystal structure

| Binder | binding result (RBD of Rf1) | binding result (SARS-CoV-2 WA1 RBD) |
| --- | --- | --- |
| B1 | binds |  |
| B2 |  | binds |
| B3 | binds |  |
| B4 |  | binds |
